Experimental data reported in publication PMC5703946, “Modification and functional adaptation of the MBF1 gene family in the lichenized fungus Endocarpon pusillum under environmental stress” (Scientific Reports, 2017).

Molecular target: T1, His-yTBP (yeast TATA-box-binding protein) (S. cerevisiae, UniProt P13393 1-240)
T1 sequence (looked up): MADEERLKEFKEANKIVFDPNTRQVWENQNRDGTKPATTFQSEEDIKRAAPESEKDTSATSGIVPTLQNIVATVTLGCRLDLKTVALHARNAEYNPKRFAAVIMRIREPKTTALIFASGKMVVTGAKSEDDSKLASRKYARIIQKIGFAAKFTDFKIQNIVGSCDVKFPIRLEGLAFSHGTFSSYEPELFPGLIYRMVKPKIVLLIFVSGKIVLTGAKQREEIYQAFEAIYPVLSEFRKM
Assay: pull-down; His-yTBP held on Ni-NTA agarose beads (from soluble E. coli lysate, washed three times); equal amounts of purified GST-MBF1 proteins or purified GST incubated with the beads for 4 h at 4 °C; beads washed three times; detected by immunoblot (Wes) with anti-His and anti-GST antibodies
Details: both partners purified

binding result: binds
B1: GST-yMBF1 (Saccharomyces cerevisiae multiprotein-bridging factor 1) (natural protein, S. cerevisiae, UniProt O14467 1-151, looked up)
chain: MSDWDTNTIIGSRARAGGSGPRANVARSQGQINAARRQGLVVSVDKKYGSTNTRGDNEGQRLTKVDRETDIVKPKKLDPNVGRAISRARTDKKMSQKDLATKINEKPTVVNDYEAARAIPNQQVLSKLERALGVKLRGNNIGSPLGAPKKK
notes: MBF1 of Saccharomyces cerevisiae (amino acids 1 to 151 by the domain limits in the methods); source: E. coli BL21, purified (glutathione agarose beads, eluted)
